Results taken from IntAct's records for PubMed 29039417.

B1: BBSome complex member BBS5 (Homo sapiens), Q8N3I7 (parent)
chain: MSVLDALWEDRDVRFDLSAQQMKTRPGEVLIDCLDSIEDTKGNNGDRGRLLVTNLRILWHSLALSRVNVSVGYNCILNITTRTANSKLRGQTEALYILTKCNSTRFEFIFTNLVPGSPRLFTSVMAVHRAYETSKMYRDFKLRSALIQNKQLRLLPQEHVYDKINGVWNLSSDQGNLGTFFITNVRIVWHANMNDSFNVSIPYLQIRSIKIRDSKFGLALVIESSQQSGGYVLGFKIDPVEKLQESVKEINSLHKVYSASPIFGVDYEMEEKPQPLEALTVEQIQDDVEIDSDGHTDAFVAYFADGNKQQDREPVFSEELGLAIEKLKDGFTLQGLWEVMS
partner: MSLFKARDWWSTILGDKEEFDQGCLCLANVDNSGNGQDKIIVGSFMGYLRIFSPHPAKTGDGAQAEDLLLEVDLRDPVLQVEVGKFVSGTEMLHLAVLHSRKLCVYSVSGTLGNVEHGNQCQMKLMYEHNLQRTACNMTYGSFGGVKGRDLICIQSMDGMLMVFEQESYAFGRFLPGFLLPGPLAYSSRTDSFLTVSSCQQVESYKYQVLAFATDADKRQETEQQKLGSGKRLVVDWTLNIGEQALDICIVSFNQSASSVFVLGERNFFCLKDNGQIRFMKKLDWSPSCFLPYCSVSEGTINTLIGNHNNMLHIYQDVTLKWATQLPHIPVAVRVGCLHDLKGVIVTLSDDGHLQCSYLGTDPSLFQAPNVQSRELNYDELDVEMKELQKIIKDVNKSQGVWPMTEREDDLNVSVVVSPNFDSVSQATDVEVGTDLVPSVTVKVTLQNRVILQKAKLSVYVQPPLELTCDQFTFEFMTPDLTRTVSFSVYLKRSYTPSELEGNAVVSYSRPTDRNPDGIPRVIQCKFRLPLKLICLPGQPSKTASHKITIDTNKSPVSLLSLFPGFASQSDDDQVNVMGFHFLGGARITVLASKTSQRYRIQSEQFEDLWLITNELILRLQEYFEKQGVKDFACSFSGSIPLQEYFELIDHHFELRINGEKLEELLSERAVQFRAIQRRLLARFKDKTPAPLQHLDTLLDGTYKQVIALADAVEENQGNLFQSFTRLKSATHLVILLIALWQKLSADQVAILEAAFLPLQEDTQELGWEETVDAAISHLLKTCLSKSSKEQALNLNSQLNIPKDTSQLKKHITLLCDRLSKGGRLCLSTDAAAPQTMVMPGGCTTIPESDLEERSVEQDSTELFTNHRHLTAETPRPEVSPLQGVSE

Variants of: B1
Conditions: with pthb1_human BBS9, Q3SYG4

effect of a mutation on the interaction | Variant
with no effect | MSVLDALWEDRDVRFDLAAQQMKTRPGEVLIDCLDSIEDTKGNNGDRGRLLVTNLRILWHSLALSRVNVSVGYNCILNITTRTANSKLRGQTEALYILTKCNSTRFEFIFTNLVPGSPRLFTSVMAVHRAYETSKMYRDFKLRSALIQNKQLRLLPQEHVYDKINGVWNLSSDQGNLGTFFITNVRIVWHANMNDSFNVSIPYLQIRSIKIRDSKFGLALVIESSQQSGGYVLGFKIDPVEKLQESVKEINSLHKVYSASPIFGVDYEMEEKPQPLEALTVEQIQDDVEIDSDGHTDAFVAYFADGNKQQDREPVFSEELGLAIEKLKDGFTLQGLWEVMS [S18A]
with no effect | MSVLDALWEDRDVRFDLKAQQMKTRPGEVLIDCLDSIEDTKGNNGDRGRLLVTNLRILWHSLALSRVNVSVGYNCILNITTRTANSKLRGQTEALYILTKCNSTRFEFIFTNLVPGSPRLFTSVMAVHRAYETSKMYRDFKLRSALIQNKQLRLLPQEHVYDKINGVWNLSSDQGNLGTFFITNVRIVWHANMNDSFNVSIPYLQIRSIKIRDSKFGLALVIESSQQSGGYVLGFKIDPVEKLQESVKEINSLHKVYSASPIFGVDYEMEEKPQPLEALTVEQIQDDVEIDSDGHTDAFVAYFADGNKQQDREPVFSEELGLAIEKLKDGFTLQGLWEVMS [S18K]
with no effect | MSVLDALWEDRDVRFDLEAQQMKTRPGEVLIDCLDSIEDTKGNNGDRGRLLVTNLRILWHSLALSRVNVSVGYNCILNITTRTANSKLRGQTEALYILTKCNSTRFEFIFTNLVPGSPRLFTSVMAVHRAYETSKMYRDFKLRSALIQNKQLRLLPQEHVYDKINGVWNLSSDQGNLGTFFITNVRIVWHANMNDSFNVSIPYLQIRSIKIRDSKFGLALVIESSQQSGGYVLGFKIDPVEKLQESVKEINSLHKVYSASPIFGVDYEMEEKPQPLEALTVEQIQDDVEIDSDGHTDAFVAYFADGNKQQDREPVFSEELGLAIEKLKDGFTLQGLWEVMS [S18E]
disrupting interaction strength | MSVLDALWEDRDVRFDESAQQMKTRPGEVLIDCLDSIEDTKGNNGDRGRLLVTNLRILWHSLALSRVNVSVGYNCILNITTRTANSKLRGQTEALYILTKCNSTRFEFIFTNLVPGSPRLFTSVMAVHRAYETSKMYRDFKLRSALIQNKQLRLLPQEHVYDKINGVWNLSSDQGNLGTFFITNVRIVWHANMNDSFNVSIPYLQIRSIKIRDSKFGLALVIESSQQSGGYVLGFKIDPVEKLQESVKEINSLHKVYSASPIFGVDYEMEEKPQPLEALTVEQIQDDVEIDSDGHTDAFVAYFADGNKQQDREPVFSEELGLAIEKLKDGFTLQGLWEVMS [L17E]
disrupting interaction strength | MSVLDALWEDRDVRFDRSAQQMKTRPGEVLIDCLDSIEDTKGNNGDRGRLLVTNLRILWHSLALSRVNVSVGYNCILNITTRTANSKLRGQTEALYILTKCNSTRFEFIFTNLVPGSPRLFTSVMAVHRAYETSKMYRDFKLRSALIQNKQLRLLPQEHVYDKINGVWNLSSDQGNLGTFFITNVRIVWHANMNDSFNVSIPYLQIRSIKIRDSKFGLALVIESSQQSGGYVLGFKIDPVEKLQESVKEINSLHKVYSASPIFGVDYEMEEKPQPLEALTVEQIQDDVEIDSDGHTDAFVAYFADGNKQQDREPVFSEELGLAIEKLKDGFTLQGLWEVMS [L17R]
disrupting interaction strength | MSVLDALWEDRDVRFDKSAQQMKTRPGEVLIDCLDSIEDTKGNNGDRGRLLVTNLRILWHSLALSRVNVSVGYNCILNITTRTANSKLRGQTEALYILTKCNSTRFEFIFTNLVPGSPRLFTSVMAVHRAYETSKMYRDFKLRSALIQNKQLRLLPQEHVYDKINGVWNLSSDQGNLGTFFITNVRIVWHANMNDSFNVSIPYLQIRSIKIRDSKFGLALVIESSQQSGGYVLGFKIDPVEKLQESVKEINSLHKVYSASPIFGVDYEMEEKPQPLEALTVEQIQDDVEIDSDGHTDAFVAYFADGNKQQDREPVFSEELGLAIEKLKDGFTLQGLWEVMS [L17K]
disrupting interaction strength | MSVLDALWEDRDVRFDASAQQMKTRPGEVLIDCLDSIEDTKGNNGDRGRLLVTNLRILWHSLALSRVNVSVGYNCILNITTRTANSKLRGQTEALYILTKCNSTRFEFIFTNLVPGSPRLFTSVMAVHRAYETSKMYRDFKLRSALIQNKQLRLLPQEHVYDKINGVWNLSSDQGNLGTFFITNVRIVWHANMNDSFNVSIPYLQIRSIKIRDSKFGLALVIESSQQSGGYVLGFKIDPVEKLQESVKEINSLHKVYSASPIFGVDYEMEEKPQPLEALTVEQIQDDVEIDSDGHTDAFVAYFADGNKQQDREPVFSEELGLAIEKLKDGFTLQGLWEVMS [L17A]
with no effect | MSVLDALWEDRDVRFDLSKQQMKTRPGEVLIDCLDSIEDTKGNNGDRGRLLVTNLRILWHSLALSRVNVSVGYNCILNITTRTANSKLRGQTEALYILTKCNSTRFEFIFTNLVPGSPRLFTSVMAVHRAYETSKMYRDFKLRSALIQNKQLRLLPQEHVYDKINGVWNLSSDQGNLGTFFITNVRIVWHANMNDSFNVSIPYLQIRSIKIRDSKFGLALVIESSQQSGGYVLGFKIDPVEKLQESVKEINSLHKVYSASPIFGVDYEMEEKPQPLEALTVEQIQDDVEIDSDGHTDAFVAYFADGNKQQDREPVFSEELGLAIEKLKDGFTLQGLWEVMS [A19K]
